Values quoted from earlier work as cited in patent US10385327B2, “Enhanced E. coli for the production of fatty acids and method of producing the same” (University of Puerto Rico, priority 2012, dated 2019).

Tests used:
[1] = literature value for FAS dehydratase construct
[2] = system: E. coli BL21-DE3-CodonPlus (RIL) cells; settings: previous work by others

Molecule | specific activity reported (Pasta et al., 2007) [1] | effect of overexpression on production of fatty acids in E. coli [2]
FAS 1-1168 construct: Fatty Acid Synthase construct of Pasta et al., 2007, literature comparator for dehydratase specific activity (protein, UniProt P49327 1-1168, looked up, fragment) MEEVVIAGMSGKLPESENLQEFWDNLIGGVDMVTDDDRRWKAGLYGLPRRSGKLKDLSRFDASFFGVHPKQAHTMDPQLRLLLEVTYEAIVDGGINPDSLRGTHTGVWVGVSGSETSEALSRDPETLVGYSMVGCQRAMMANRLSFFFDFRGPSIALDTACSSSLMALQNAYQAIHSGQCPAAIVGGINVLLKPNTSVQFLRLGMLSPEGTCKAFDTAGNGYCRSEGVVAVLLTKKSLARRVYATILNAGTNTDGFKEQGVTFPSGDIQEQLIRSLYQSAGVAPESFEYIEAHGTGTKVGDPQELNGITRALCATRQEPLLIGSTKSNMGHPEPASGLAALAKVLLSLEHGLWAPNLHFHSPNPEIPALLDGRLQVVDQPLPVRGGNVGINSFGFGGSNVHIILRPNTQPPPAPAPHATLPRLLRASGRTPEAVQKLLEQGLRHSQDLAFLSMLNDIAAVPATAMPFRGYAVLGGERGGPEVQQVPAGERPLWFICSGMGTQWRGMGLSLMRLDRFRDSILRSDEAVKPFGLKVSQLLLSTDESTFDDIVHSFVSLTAIQIGLIDLLSCMGLRPDGIVGHSLGEVACGYADGCLSQEEAVLAAYWRGQCIKEAHLPPGAMAAVGLSWEECKQRCPPGVVPACHNSKDTVTISGPQAPVFEFVEQLRKEGVFAKEVRTGGMAFHSYFMEAIAPPLLQELKKVIREPKPRSARWLSTSIPEAQWHSSLARTSSAEYNVNNLVSPVLFQEALWHVPEHAVVLEIAPHALLQAVLKRGLKPSCTIIPLMKKDHRDNLEFFLAGIGRLHLSGIDANPNALFPPVEFPAPRGTPLISPLIKWDHSLAWDVPAAEDFPNGSGSPSAAIYNIDTSSESPDHYLVDHTLDGRVLFPATGYLSIVWKTLARALGLGVEQLPVVFEDVVLHQATILPKTGTVSLEVRLLEASRAFEVSENGNLVVSGKVYQWDDPDPRLFDHPESPTPNPTEPLFLAQAEVYKELRLRGYDYGPHFQGILEASLEGDSGRLLWKDNWVSFMDTMLQMSILGSAKHGLYLPTRVTAIHIDPATHRQKLYTLQDKAQVADVVVSRWLRVTVAGGVHISGLHTESAPRRQQEQQVPILEKFCFTPHTEEGCLSERAALQEELQLCKGLVQALQTKVTQQGLKMVVPGLDGAQ | 204 mol product/(min*mol enzyme) | 
E. coli FabA dehydratase: DH enzyme involved in fatty acid biosynthesis in E. coli (protein, UniProt P0A6Q3 2-172, looked up) 3-hydroxydecanoyl-[acyl-carrie …: VDKRESYTKEDLLASGRGELFGAKGPQLPAPNMLMMDRVVKMTETGGNFDKGYVEAELDINPDLWFFGCHFIGDPVMPGCLGLDAMWQLVGFYLGWLGGEGKGRALGVGEVKFTGQVLPTAKKVTYRIHFKRIVNRRLIMGLADGEVLVDGRLIYTASDLKVGLFQDTSAF |  | does not increase the production of fatty acids
